Source: the supplement of paper PMC9112550, “Optimization of the antimicrobial peptide Bac7 by deep mutational scanning” (BMC Biology, 2022)

Each sequence was assayed on Escherichia coli TOP10 (assay: shrunken log2 fold change of peptide-encoding DNA abundance (4.5 h post-induction vs induction); higher = less antimicrobial activity (less host growth inhibition)). Conditions: time post-induction: 4.5 h; library: site-saturation at positions 5, 18, 19, 20.
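Also: peptides expressed intracellularly from a pBAD plasmid library in pooled LB shake-flask culture, induced with 0.3% L-arabinose, DNA abundance read by NGS, three biological replicates, DESeq2 with apeglm shrinkage.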

| Sequence | shrunken log2 fold change |
| --- | --- |
| RRIRDRPPRLPRPRPRPYWDPRP | -0.766 |
| RRIRGRPPRLPRPRPRPMKLPRP | 0.265 |
| RRIRVRPPRLPRPRPRPQRHPRP | -0.0604 |
| RRIRHRPPRLPRPRPRPKWSPRP | 0.0617 |
| RRIRARPPRLPRPRPRPGWYPRP | 0.437 |
| RRIRIRPPRLPRPRPRPCIWPRP | -0.278 |
| RRIRNRPPRLPRPRPRPHEMPRP | -0.33 |
| RRIRDRPPRLPRPRPRPKGAPRP | 0.368 |
| RRIRSRPPRLPRPRPRPQFIPRP | -1.79 |
| RRIRDRPPRLPRPRPRPKLQPRP | 0.08 |
| RRIRQRPPRLPRPRPRPQSGPRP | -0.0474 |
| RRIRCRPPRLPRPRPRPFADPRP | -0.45 |
| RRIRHRPPRLPRPRPRPSSLPRP | -0.153 |
| RRIRIRPPRLPRPRPRPCKFPRP | -0.549 |
| RRIRPRPPRLPRPRPRPPEGPRP | 0.436 |
| RRIRDRPPRLPRPRPRPARQPRP | 0.212 |
| RRIRSRPPRLPRPRPRPFHQPRP | -0.418 |
| RRIRYRPPRLPRPRPRPRQSPRP | -0.0113 |
| RRIRARPPRLPRPRPRPRGHPRP | 0.644 |
| RRIRSRPPRLPRPRPRPCYKPRP | -0.281 |
| RRIRMRPPRLPRPRPRPKICPRP | -0.155 |
| RRIRHRPPRLPRPRPRPACNPRP | -0.155 |
| RRIRIRPPRLPRPRPRPGNRPRP | -0.0134 |
| RRIRCRPPRLPRPRPRPTKLPRP | -0.132 |
| RRIRQRPPRLPRPRPRPTLTPRP | 0.0596 |

| Sequence | shrunken log2 fold change |
| --- | --- |
| RRIRCRPPRLPRPRPRPHCRPRP | -0.0478 |
| RRIRMRPPRLPRPRPRPEMNPRP | 3.59 |
| RRIRGRPPRLPRPRPRPMSCPRP | 0.364 |
| RRIRDRPPRLPRPRPRPYFEPRP | -0.3 |
| RRIRQRPPRLPRPRPRPGGAPRP | 0.485 |
| RRIRNRPPRLPRPRPRPCDDPRP | 0.0873 |
| RRIRWRPPRLPRPRPRPGKNPRP | 0.13 |
| RRIRVRPPRLPRPRPRPRAIPRP | 1.97 |
| RRIRQRPPRLPRPRPRPQKNPRP | -0.297 |
| RRIRKRPPRLPRPRPRPGYLPRP | -0.319 |
| RRIRARPPRLPRPRPRPVNAPRP | -0.0521 |
| RRIRDRPPRLPRPRPRPALNPRP | -0.0576 |
| RRIRHRPPRLPRPRPRPDSTPRP | 0.12 |
| RRIRARPPRLPRPRPRPNRMPRP | 0.0574 |
| RRIRYRPPRLPRPRPRPTFCPRP | 0.115 |
| RRIRERPPRLPRPRPRPRFMPRP | -0.0944 |
| RRIRKRPPRLPRPRPRPNDEPRP | 0.179 |
| RRIRVRPPRLPRPRPRPCAYPRP | -0.336 |
| RRIRFRPPRLPRPRPRPTQHPRP | 0.168 |
| RRIRSRPPRLPRPRPRPMNLPRP | 0.048 |
| RRIRDRPPRLPRPRPRPCCYPRP | 0.503 |
| RRIRERPPRLPRPRPRPQSRPRP | 0.00145 |
| RRIRNRPPRLPRPRPRPCPNPRP | -0.344 |
| RRIRNRPPRLPRPRPRPTMTPRP | 0.149 |
| RRIRQRPPRLPRPRPRPDYGPRP | -0.159 |

| Sequence | shrunken log2 fold change |
| --- | --- |
| RRIRPRPPRLPRPRPRPSSEPRP | 0.174 |
| RRIRNRPPRLPRPRPRPTNNPRP | -0.545 |
| RRIRRRPPRLPRPRPRPQSLPRP | -0.0788 |
| RRIRFRPPRLPRPRPRPVYFPRP | -0.399 |
| RRIRFRPPRLPRPRPRPSTRPRP | -0.013 |
| RRIRERPPRLPRPRPRPHHCPRP | -0.0231 |
| RRIRKRPPRLPRPRPRPDRMPRP | 1.19 |
| RRIRSRPPRLPRPRPRPGHTPRP | 0.0898 |
| RRIRWRPPRLPRPRPRPFPCPRP | -0.0902 |
| RRIRDRPPRLPRPRPRPKKMPRP | -0.0785 |
| RRIRERPPRLPRPRPRPCHHPRP | -0.209 |
| RRIRYRPPRLPRPRPRPSSSPRP | -0.166 |
| RRIRGRPPRLPRPRPRPPHVPRP | 1.04 |
| RRIRVRPPRLPRPRPRPIACPRP | 0.0889 |
| RRIRIRPPRLPRPRPRPRTMPRP | -0.377 |
| RRIRCRPPRLPRPRPRPCWQPRP | -0.0116 |
| RRIRLRPPRLPRPRPRPQFKPRP | -0.501 |
| RRIRWRPPRLPRPRPRPGKMPRP | 0.0641 |
| RRIRCRPPRLPRPRPRPMKYPRP | -0.82 |
| RRIRHRPPRLPRPRPRPLQKPRP | 0.104 |
| RRIRQRPPRLPRPRPRPDDIPRP | -0.0246 |
| RRIRWRPPRLPRPRPRPLVMPRP | 0.000565 |
| RRIRDRPPRLPRPRPRPWGPPRP | -0.0594 |
| RRIRNRPPRLPRPRPRPNMIPRP | -0.697 |
| RRIRWRPPRLPRPRPRPFPGPRP | -0.0199 |

| Sequence | shrunken log2 fold change |
| --- | --- |
| RRIRDRPPRLPRPRPRPVLEPRP | 0.627 |
| RRIRVRPPRLPRPRPRPEQWPRP | 0.149 |
| RRIRLRPPRLPRPRPRPIVLPRP | -0.345 |
| RRIRARPPRLPRPRPRPQISPRP | -0.051 |
| RRIRGRPPRLPRPRPRPILWPRP | 0.376 |
| RRIRARPPRLPRPRPRPNHTPRP | -0.605 |
| RRIRERPPRLPRPRPRPQKQPRP | -0.0621 |
| RRIRTRPPRLPRPRPRPPGDPRP | 0.189 |
| RRIRQRPPRLPRPRPRPHDNPRP | 1.99 |
| RRIRWRPPRLPRPRPRPIDSPRP | -0.0713 |
| RRIRMRPPRLPRPRPRPAVEPRP | 0.741 |
| RRIRLRPPRLPRPRPRPMYRPRP | 0.0136 |
| RRIRLRPPRLPRPRPRPMWRPRP | 0.194 |
| RRIRSRPPRLPRPRPRPSPPPRP | 0.154 |
| RRIRMRPPRLPRPRPRPDDDPRP | -0.00152 |
| RRIRIRPPRLPRPRPRPFPLPRP | -0.547 |
| RRIRQRPPRLPRPRPRPWPDPRP | -0.0854 |
| RRIRVRPPRLPRPRPRPHRPPRP | -0.243 |
| RRIRQRPPRLPRPRPRPQPKPRP | 0.0658 |
| RRIRGRPPRLPRPRPRPVCNPRP | 0.636 |
| RRIRNRPPRLPRPRPRPKSHPRP | -0.253 |
| RRIRFRPPRLPRPRPRPFAKPRP | -0.026 |
| RRIRMRPPRLPRPRPRPNAVPRP | 0.0414 |
| RRIRYRPPRLPRPRPRPVIRPRP | -0.139 |
| RRIRPRPPRLPRPRPRPLHYPRP | -0.11 |

| Sequence | shrunken log2 fold change |
| --- | --- |
| RRIRMRPPRLPRPRPRPGWEPRP | 0.888 |
| RRIRGRPPRLPRPRPRPECSPRP | 1.2 |
| RRIRMRPPRLPRPRPRPANSPRP | 0.0248 |
| RRIRIRPPRLPRPRPRPRTEPRP | 0.0225 |
| RRIRKRPPRLPRPRPRPYNDPRP | -0.00691 |
| RRIRGRPPRLPRPRPRPIIRPRP | 0.07 |
| RRIRMRPPRLPRPRPRPWNGPRP | -0.0377 |
| RRIRCRPPRLPRPRPRPHRVPRP | 0.135 |
| RRIRHRPPRLPRPRPRPAKLPRP | -0.352 |
| RRIRHRPPRLPRPRPRPMPRPRP | 0.069 |
| RRIRERPPRLPRPRPRPEENPRP | 0.127 |
| RRIRFRPPRLPRPRPRPGYLPRP | -0.0745 |
| RRIRERPPRLPRPRPRPRQNPRP | 0.177 |
| RRIRRRPPRLPRPRPRPEGTPRP | 0.28 |
| RRIRTRPPRLPRPRPRPLFNPRP | -0.692 |
| RRIRMRPPRLPRPRPRPMWIPRP | -0.217 |
| RRIRPRPPRLPRPRPRPDAPPRP | 0.227 |
| RRIRFRPPRLPRPRPRPTDPPRP | -0.0408 |
| RRIRLRPPRLPRPRPRPKVCPRP | 0.0264 |
| RRIRARPPRLPRPRPRPSTYPRP | -0.356 |
| RRIRHRPPRLPRPRPRPHDIPRP | 0.0564 |
| RRIRHRPPRLPRPRPRPCGGPRP | -0.0282 |
| RRIRIRPPRLPRPRPRPIDRPRP | 0.203 |
| RRIRRRPPRLPRPRPRPNHQPRP | -0.0677 |
| RRIRVRPPRLPRPRPRPWNGPRP | -0.277 |

| Sequence | shrunken log2 fold change |
| --- | --- |
| RRIRARPPRLPRPRPRPKPSPRP | 0.524 |
| RRIRIRPPRLPRPRPRPILYPRP | -0.357 |
| RRIRGRPPRLPRPRPRPPVLPRP | 0.25 |
| RRIRWRPPRLPRPRPRPHERPRP | 0.156 |
| RRIRQRPPRLPRPRPRPEQMPRP | -0.00448 |
| RRIRPRPPRLPRPRPRPVRRPRP | 0.418 |
| RRIRERPPRLPRPRPRPDVPPRP | -0.117 |
| RRIRRRPPRLPRPRPRPAENPRP | 0.0557 |
| RRIRVRPPRLPRPRPRPEVTPRP | -0.0717 |
| RRIRSRPPRLPRPRPRPEMLPRP | 0.536 |
| RRIRTRPPRLPRPRPRPHKFPRP | -0.18 |
| RRIRQRPPRLPRPRPRPCWSPRP | -0.08 |
| RRIRYRPPRLPRPRPRPEHFPRP | -0.0545 |
| RRIRTRPPRLPRPRPRPCQKPRP | 0.0124 |
| RRIRIRPPRLPRPRPRPHEMPRP | -0.143 |
| RRIRFRPPRLPRPRPRPVTNPRP | -0.0718 |
| RRIRDRPPRLPRPRPRPFATPRP | 0.271 |
| RRIRCRPPRLPRPRPRPDEKPRP | 0.118 |
| RRIRMRPPRLPRPRPRPCWQPRP | 0.0757 |
| RRIRWRPPRLPRPRPRPVTMPRP | -0.0519 |
| RRIRSRPPRLPRPRPRPCKTPRP | 0.0503 |
| RRIRFRPPRLPRPRPRPFHMPRP | -0.116 |
| RRIRVRPPRLPRPRPRPHSCPRP | -0.0621 |
| RRIRVRPPRLPRPRPRPYAIPRP | -0.033 |
| RRIRARPPRLPRPRPRPAQGPRP | 0.373 |
